Patent US20240025992A1 (Janssen / Centocor, published 2024)

B1: DL3B570 (Fc fusion)
scFv: EIVLTQSPGTLSLSPGERATLSCRASQSVSRSYLAWYQQKPGQAPRFLIYGASSRATGIPDRFSGSGSGTDFTLTISRLEPEDFAVYYCQQYGTSPITFGQGTRLEIKGGSEGKSSGSGSESKSTGGSQVQLQESGPGLVKPSETLSLSCTVSGDSIRSYYWSWIRQPPGKGLEWIGYIYYSGTTNYKSSLKSRVTISLDTSKKQFSLNLDSVTAADTAVYYCARIGPAGFYFDYWGQGTLVTVSS
notes: also called DL3B332 scFv-Fc; not shown: wild-type IgG1 Fc domain
B2: DL3B572 (Fc fusion)
scFv: EVQLVQSGAEVKKPGASVKVSCKASGYTFTTYYIHWVRQAPGQGLEWMGIIDPSGGRTSYAQKFLGRVTMTRDTSTSTVYMELRSLRSEDTAVYYCARGGDGTWYYGMDVWGQGTTVTVSSGGSEGKSSGSGSESKSTGGSDIVMTQSPSFLSASVGDRVTITCRASQGISNYLAWYQQKPGKAPKLLIYAASTLQSGVPSRFSGSGSGTEFTLTISSLQPEDFATYYCQQLNSYPLTFGGGTKVEIK
notes: also called DL3B409 scFv-Fc; not shown: wild-type IgG1 Fc domain
B3: DL3B571 (Fc fusion)
scFv: EIVLTQSPGTLSLSPGERATLSCRASQSASSYLAWYQQKPGQAPRLLIYGASSRATGIPDRFSGSGSGTDFTLTISRLEPEDFAVYYCQQYNSSPYTFGQGTKLEIKGGSEGKSSGSGSESKSTGGSQVQLVQSGAEVKKPGASVKVSCKASGHIFISYYIHWVRQAPGQGLEWMGIIDPSGGSKSYAQKFQGRVTMTRDTSTSTVYMELSSLRSEDTAVYYCARQGMIVGTTGDAFDIWGQGTMVTVSS
notes: also called DL3B358 scFv-Fc; not shown: wild-type IgG1 Fc domain
B4: DL3B582 (bispecific antibody)
heavy: QVQLVQSGAEVKKPGASVKVSCKASGNTFTNYYIHWVRQAPGQGLEWMGIINPSGGSTSYAQKLQGRMTMTRDTSTSTVYMELSSLRSEDTAVYFCARQGPFIGDAFDIWGQGTMVTVSSASTKGPSVFPLAPSSKSTSGGTAALGCLVKDYFPEPVTVSWNSGALTSGVHTFPAVLQSSGLYSLSSVVTVPSSSLGTQTYICNVNHKPSNTKVDKKVEPKSCDKTHTCPPCPAPEAAGGPSVFLFPPKPKDTLMISRTPEVTCVVVSVSHEDPEVKFNWYVDGVEVHNAKTKPREEQYNSTYRVVSVLTVLHQDWLNGKEYKCKVSNKALPAPIEKTISKAKGQPREPQVYVLPPSREEMTKNQVSLLCLVKGFYPSDIAVEWESNGQPENNYLTWPPVLDSDGSFFLYSKLTVDKSRWQQGNVFSCSVMHEALHNHYTQKSLSLSPG
light: DIQMTQSPSSLSASVGDRVTITCRASQGISNYLAWFQQKPGKAPKSLIYAASSLQSGVPSKFSGSGSGTDFTLTISSLQPEDFATYYCQQYNSYPYTFAQGTKLEIKRTVAAPSVFIFPPSDEQLKSGTASVVCLLNNFYPREAKVQWKVDNALQSGNSQESVTEQDSKDSTYSLSSTLTLSKADYEKHKVYACEVTHQGLSSPVTKSFNRGEC
scFv: DIQMTQSPSSLSASVGDRVTITCRARQSIGTAIHWYQQKPGKAPKLLIKYASESISGVPSRFSGSGSGTDFTLTISSLQPEDFATYYCQQSGSWPYTFGQGTKLEIKGGSEGKSSGSGSESKSTGGSEVQLVESGGGLVKPGGSLRLSCAASGFTFSRYNMNWVRQAPGKGLEWVSSISTSSNYIYYADSVKGRFTFSRDNAKNSLDLQMSGLRAEDTAIYYCTRGWGPFDYWGQGTLVTVSSEPKSSDKTHTCPPCPAPEAAGGPSVFLFPPKPKDTLMISRTPEVTCVVVSVSHEDPEVKFNWYVDGVEVHNAKTKPREEQYNSTYRVVSVLTVLHQDWLNGKEYKCKVSNKALPAPIEKTISKAKGQPREPQVYVYPPSREEMTKNQVSLTCLVKGFYPSDIAVEWESNGQPENNYKTTPPVLDSDGSFALVSKLTVDKSRWQQGNVFSCSVMHEALHNHYTQKSLSLSPG
notes: DLL3 arm: DL3B279-Fab-Fc; CD3 arm: CD3W245-LH-scFv-Fc; IgG1 with L234A/L235A/D265S and heterodimerization mutations; also called CD3W245-LH-scFv; DL3B279-Fab
B5: DL3B583 (bispecific antibody)
heavy: B4 heavy
light: B4 light
scFv: EVQLVESGGGLVKPGGSLRLSCAASGFTFSRYNMNWVRQAPGKGLEWVSSISTSSNYIYYADSVKGRFTFSRDNAKNSLDLQMSGLRAEDTAIYYCTRGWGPFDYWGQGTLVTVSSGGSEGKSSGSGSESKSTGGSDIQMTQSPSSLSASVGDRVTITCRARQSIGTAIHWYQQKPGKAPKLLIKYASESISGVPSRFSGSGSGTDFTLTISSLQPEDFATYYCQQSGSWPYTFGQGTKLEIKEPKSSDKTHTCPPCPAPEAAGGPSVFLFPPKPKDTLMISRTPEVTCVVVSVSHEDPEVKFNWYVDGVEVHNAKTKPREEQYNSTYRVVSVLTVLHQDWLNGKEYKCKVSNKALPAPIEKTISKAKGQPREPQVYVYPPSREEMTKNQVSLTCLVKGFYPSDIAVEWESNGQPENNYKTTPPVLDSDGSFALVSKLTVDKSRWQQGNVFSCSVMHEALHNHYTQKSLSLSPG
notes: DLL3 arm: DL3B279-Fab-Fc; CD3 arm: CD3W245-HL-scFv-Fc; IgG1 with L234A/L235A/D265S and heterodimerization mutations; also called CD3W245-HL-scFv; DL3B279-Fab
B6: DL3B569 (Fc fusion)
scFv: DIQMTQSPSSLSASVGDRVTITCRASQGISNYLAWFQQKPGKAPKSLIYAASSLQSGVPSKFSGSGSGTDFTLTISSLQPEDFATYYCQQYNSYPYTFAQGTKLEIKGGSEGKSSGSGSESKSTGGSQVQLVQSGAEVKKPGASVKVSCKASGNTFTNYYIHWVRQAPGQGLEWMGIINPSGGSTSYAQKLQGRMTMTRDTSTSTVYMELSSLRSEDTAVYFCARQGPFIGDAFDIWGQGTMVTVSS
notes: The conflict is not resolved; also called DL3B279 scFv-Fc; not shown: wild-type IgG1 Fc domain

Tests used:
[1] = target: T1, DL3W37, human DLL3 EGF6 domain, HSA Fusion and C-term 6His tag (human); assay: MSD plate binding assay on coated DLL3 domain-HSA fusions
T1 construct: Fusion with the C34S variant of human serum albumin at the C-terminus of the DLL3 subdomain, plus 6xHis

[2] = target: T2, DL3W35, extracellular domain of human DLL3 linked to a C-terminal 6xHis-Tag and a linker (human, UniProt Q9NYJ7 27-479); assay: SPR (ProteOn), antibody captured by anti-Fc, DLL3 (DL3W35) titrated
T2 construct: also called human DLL3 ECD; huDLL3
T2 sequence: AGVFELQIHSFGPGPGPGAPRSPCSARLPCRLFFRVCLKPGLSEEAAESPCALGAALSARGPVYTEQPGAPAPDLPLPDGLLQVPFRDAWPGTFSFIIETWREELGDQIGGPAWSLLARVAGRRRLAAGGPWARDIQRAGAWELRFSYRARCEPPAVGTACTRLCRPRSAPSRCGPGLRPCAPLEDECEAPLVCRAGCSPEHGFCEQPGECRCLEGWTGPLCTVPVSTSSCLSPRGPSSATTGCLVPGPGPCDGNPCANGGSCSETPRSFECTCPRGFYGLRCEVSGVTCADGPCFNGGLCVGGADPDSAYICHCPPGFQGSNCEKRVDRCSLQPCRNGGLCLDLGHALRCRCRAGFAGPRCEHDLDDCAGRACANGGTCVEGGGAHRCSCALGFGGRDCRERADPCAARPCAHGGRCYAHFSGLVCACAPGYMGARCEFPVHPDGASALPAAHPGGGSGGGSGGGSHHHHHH

[3] = target: T3, DL3W33, Recombinant Human DLL1 ECD (Ser22-Gly540), -DI-C-6xHis (human, UniProt O00548 22-540); assay: SPR (ProteOn), antibody captured by anti-Fc; DLL1 at 100 nM and 1000 nM
T3 construct: also called huDLL1; TPP000049465
T3 sequence: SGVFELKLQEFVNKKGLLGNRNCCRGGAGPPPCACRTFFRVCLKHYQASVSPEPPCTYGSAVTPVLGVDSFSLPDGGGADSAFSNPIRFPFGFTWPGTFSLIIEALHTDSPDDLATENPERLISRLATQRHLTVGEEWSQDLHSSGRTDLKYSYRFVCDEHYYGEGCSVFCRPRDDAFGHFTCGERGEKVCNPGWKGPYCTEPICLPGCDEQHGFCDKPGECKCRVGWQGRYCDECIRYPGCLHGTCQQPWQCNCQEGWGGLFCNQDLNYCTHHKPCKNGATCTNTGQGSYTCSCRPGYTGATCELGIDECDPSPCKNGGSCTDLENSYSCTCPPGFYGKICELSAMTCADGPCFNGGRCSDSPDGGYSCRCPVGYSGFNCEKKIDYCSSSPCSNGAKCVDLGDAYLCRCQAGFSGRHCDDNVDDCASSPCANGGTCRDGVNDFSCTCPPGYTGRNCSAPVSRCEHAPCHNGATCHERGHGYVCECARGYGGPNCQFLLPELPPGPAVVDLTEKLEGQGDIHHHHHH

[4] = target: T4, DL3W34, human DLL4 ECD (Ser27-Pro524), C-10xHis (human, UniProt Q9NR61 27-524); assay: SPR (ProteOn), antibody captured by anti-Fc; DLL4 at 100 nM and 1000 nM
T4 construct: also called huDLL4; TPP0000494661

[5] = target: T5, human DLL3 on DLL3+ tumor cells (human, UniProt Q9NYJ7 27-618); assay: cell-based or functional assay
T5 sequence: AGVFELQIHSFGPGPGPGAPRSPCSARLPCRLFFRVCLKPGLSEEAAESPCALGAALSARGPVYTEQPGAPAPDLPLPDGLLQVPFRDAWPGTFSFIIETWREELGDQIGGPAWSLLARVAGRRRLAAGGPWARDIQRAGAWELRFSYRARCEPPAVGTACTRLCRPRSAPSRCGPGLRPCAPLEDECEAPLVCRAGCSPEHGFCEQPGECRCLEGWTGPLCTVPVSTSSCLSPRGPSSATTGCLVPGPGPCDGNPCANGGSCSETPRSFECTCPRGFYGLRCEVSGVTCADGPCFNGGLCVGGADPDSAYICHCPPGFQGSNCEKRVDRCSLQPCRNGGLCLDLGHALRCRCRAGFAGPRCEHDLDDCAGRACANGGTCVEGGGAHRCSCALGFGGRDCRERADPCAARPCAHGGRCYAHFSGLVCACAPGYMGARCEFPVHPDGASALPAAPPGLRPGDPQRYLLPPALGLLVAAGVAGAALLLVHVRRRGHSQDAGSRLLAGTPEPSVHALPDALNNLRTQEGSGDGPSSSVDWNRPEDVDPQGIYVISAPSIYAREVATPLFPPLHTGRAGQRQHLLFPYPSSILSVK

[6] = target: T6, recombinant human DLL3 (Example 9, construct not named) (human, UniProt Q9NYJ7 27-492, limits assumed); assay: SPR (Biacore T200), antibody captured by goat anti-Fc on a C1 chip, DLL3 titrated
T6 construct: also called DLL3 antigen
T6 sequence: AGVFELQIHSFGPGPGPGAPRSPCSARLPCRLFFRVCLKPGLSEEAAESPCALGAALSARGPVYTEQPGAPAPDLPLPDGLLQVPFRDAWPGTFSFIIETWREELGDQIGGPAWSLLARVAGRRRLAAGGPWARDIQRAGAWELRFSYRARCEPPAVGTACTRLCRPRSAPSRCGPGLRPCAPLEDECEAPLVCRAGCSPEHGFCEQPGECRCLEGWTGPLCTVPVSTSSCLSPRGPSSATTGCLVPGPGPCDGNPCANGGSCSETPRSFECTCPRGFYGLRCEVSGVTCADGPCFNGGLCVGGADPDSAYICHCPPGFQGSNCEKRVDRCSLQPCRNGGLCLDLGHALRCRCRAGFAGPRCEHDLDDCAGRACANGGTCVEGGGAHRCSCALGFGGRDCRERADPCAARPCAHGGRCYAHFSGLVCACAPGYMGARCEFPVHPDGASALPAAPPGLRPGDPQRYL

T4 sequence (Q9NR61 other isoform, or with tags, fused parts or gaps limits assumed): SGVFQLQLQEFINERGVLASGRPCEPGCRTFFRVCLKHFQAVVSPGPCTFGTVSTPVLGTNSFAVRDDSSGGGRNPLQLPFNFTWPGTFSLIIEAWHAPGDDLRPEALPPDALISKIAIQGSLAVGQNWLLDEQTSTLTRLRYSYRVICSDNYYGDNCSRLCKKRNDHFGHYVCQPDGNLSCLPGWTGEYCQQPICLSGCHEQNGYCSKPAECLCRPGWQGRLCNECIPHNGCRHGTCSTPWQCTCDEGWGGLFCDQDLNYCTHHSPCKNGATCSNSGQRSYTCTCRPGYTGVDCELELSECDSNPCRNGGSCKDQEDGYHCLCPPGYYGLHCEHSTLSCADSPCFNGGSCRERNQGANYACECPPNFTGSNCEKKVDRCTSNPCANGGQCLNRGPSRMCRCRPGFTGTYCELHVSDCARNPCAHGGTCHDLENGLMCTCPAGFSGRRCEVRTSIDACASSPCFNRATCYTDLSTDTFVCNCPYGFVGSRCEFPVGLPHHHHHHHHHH
T1 sequence (chain, as listed by the source limits assumed): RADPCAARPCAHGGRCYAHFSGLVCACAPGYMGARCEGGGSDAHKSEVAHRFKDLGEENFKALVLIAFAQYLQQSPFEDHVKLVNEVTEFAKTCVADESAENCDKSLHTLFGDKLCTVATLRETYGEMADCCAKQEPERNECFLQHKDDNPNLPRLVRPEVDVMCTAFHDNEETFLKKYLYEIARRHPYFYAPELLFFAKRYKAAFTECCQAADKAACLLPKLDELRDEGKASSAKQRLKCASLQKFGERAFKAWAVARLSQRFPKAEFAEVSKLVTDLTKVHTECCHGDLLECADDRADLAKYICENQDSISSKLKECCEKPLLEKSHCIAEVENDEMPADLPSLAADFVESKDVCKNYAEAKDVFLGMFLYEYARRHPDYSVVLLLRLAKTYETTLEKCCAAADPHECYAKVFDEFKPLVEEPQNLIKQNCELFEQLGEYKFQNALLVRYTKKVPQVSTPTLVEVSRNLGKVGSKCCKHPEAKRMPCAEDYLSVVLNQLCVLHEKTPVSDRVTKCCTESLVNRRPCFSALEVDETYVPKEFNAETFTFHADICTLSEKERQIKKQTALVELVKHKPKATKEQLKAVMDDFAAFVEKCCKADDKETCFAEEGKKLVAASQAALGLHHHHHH

Binder	binding result [1]	Kd [2]	binding result [3]	binding result [4]	Cytotoxicity (% Lysis), G361, whole PBMCs, 1:1 ET ratio, 30 nM [5]	Cytotoxicity (% Lysis), HCC1833, whole PBMCs, 1:1 ET ratio, 30 nM [5]	Cytotoxicity (% Lysis), SHP-77, whole PBMCs, 1:1 ET ratio, 30 nM [5]	Kd [6]
B1	binds	0.0668 nM	no binding (tested: 1000 nM)	no binding (tested: 1000 nM)				
B2		2.32 nM	no binding (tested: 1000 nM)	no binding (tested: 1000 nM)				
B3	binds	0.0734 nM	no binding (tested: 1000 nM)	no binding (tested: 1000 nM)				
B4					98.9%	93.7%	87.3%	0.016 nM
B5					98.9%	88.4%	99.8%	0.016 nM
B6	binds	0.147 nM	no binding (tested: 1000 nM)	no binding (tested: 1000 nM)				
